Source: publication PMC7688135, “Two cis-regulatory SNPs upstream of ABCG2 synergistically cause the blue eggshell phenotype in the duck”

T1: CTCF (Homo sapiens, UniProt P49711 1-727)
T1 sequence: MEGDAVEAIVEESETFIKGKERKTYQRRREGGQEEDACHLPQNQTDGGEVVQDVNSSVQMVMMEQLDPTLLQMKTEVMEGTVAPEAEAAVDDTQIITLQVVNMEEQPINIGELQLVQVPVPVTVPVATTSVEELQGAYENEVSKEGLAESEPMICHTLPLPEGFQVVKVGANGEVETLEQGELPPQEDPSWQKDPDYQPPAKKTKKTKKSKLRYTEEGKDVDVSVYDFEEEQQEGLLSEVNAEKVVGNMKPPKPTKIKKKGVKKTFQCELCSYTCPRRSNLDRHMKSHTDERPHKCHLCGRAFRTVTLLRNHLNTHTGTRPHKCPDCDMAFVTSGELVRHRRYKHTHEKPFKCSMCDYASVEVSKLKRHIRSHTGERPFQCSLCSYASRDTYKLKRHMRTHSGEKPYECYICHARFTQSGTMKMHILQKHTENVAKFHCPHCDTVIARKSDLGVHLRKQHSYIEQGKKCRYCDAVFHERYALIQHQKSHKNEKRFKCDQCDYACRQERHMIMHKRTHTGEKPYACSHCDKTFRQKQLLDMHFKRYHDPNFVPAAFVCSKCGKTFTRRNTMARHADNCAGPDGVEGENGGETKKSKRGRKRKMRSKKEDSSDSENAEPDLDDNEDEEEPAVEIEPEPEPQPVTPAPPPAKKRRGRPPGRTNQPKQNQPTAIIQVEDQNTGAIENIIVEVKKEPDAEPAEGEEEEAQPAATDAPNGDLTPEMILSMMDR

B1: White-M5 (G allele) (dsDNA)
DNA 1: ACTTCTGCCACTGGAGGCAGGAGGG
DNA 2: CCCTCCTGCCTCCAGTGGCAGAAGT
B2: Blue-M5 (A allele) (dsDNA)
DNA 1: ACTTCTGCCACTAGAGGCAGGAGGG
DNA 2: CCCTCCTGCCTCTAGTGGCAGAAGT

Assays:
CTCF [1] = biological target: T1, CTCF; experiment: EMSA supershift; anti-CTCF antibody; Buffer, salt, pH and temperature not given; 40 pmol biotin probe, 200-fold cold competitor, 5% non-denaturing PAGE, LightShift Chemiluminescent EMSA kit; conditions: protein: recombinant; label: 5'-biotin on strand 1; blunt
CTCF [2] = biological target: T1, CTCF; experiment: EMSA supershift; anti-CTCF antibody; supershift evident; Buffer, salt, pH and temperature not given; 40 pmol biotin probe, 200-fold cold competitor, 5% non-denaturing PAGE, LightShift Chemiluminescent EMSA kit; conditions: protein: recombinant; label: 5'-biotin on strand 1; blunt

Row | Binder | binding result (CTCF [1]) | binding result (CTCF [2])
1 | B1 | no binding | 
2 | B2 |  | binds
